Assay results published in article PMC13364712.

Molecular target: actin filaments (actin from Gallus gallus skeletal muscle) (Gallus gallus (chicken)), P68139
Test: co-sedimentation; 4 µM EGFP–SFM peptide with 0–200 µM actin filaments in F buffer, 1 h at room temperature, 100,000g for 30 min; pellet read by anti-EGFP western blot; one-site specific binding fit; apparent

Kd: 2000 nM
Binder: RRSVGELRLLFEARCAAVAAAA (modifications not checked) [EGFP-tagged ITPKA SFM peptide, P23677 1-461]
